Laboratory results taken from patent US20070190054A1 (published 2007).

Target: T1, C3b (purified; species not stated in Examples 12, 13, 19, 20) (Homo sapiens (Human), UniProt P01024 23-667; P01024 749-1663, The two chains are disulfide-linked. The internal thioester of the alpha' chain (Cys-Gln) is broken in C3b. Natural glycosylation is present. The protein carries an Alexa488 label in the …)
T1 construct: also called complement C3b; C3b-A488
Assay: SPR (Biacore 2000), C3b amine-coupled to a CM5 chip, CRIg-Fc injected

Kd: 250 nM
B1: murine CRIg-Fc fusion protein (Fc fusion)
chain: HPTLKTPESVTGTWKGDVKIQCIYDPLRGYRQVLVKWLVRHGSDSVTIFLRDSTGDHIQQAKYRGRLKVSHKVPGDVSLQINTLQMDDRNHYTCEVTWQTPDGNQVIRDKIIELRVRKYNPPRINTEAPTTLHSSLEATTIMSSTSDLTTNGTGKLEETIAGSGRNLPIFAIIFIISLCCI
notes: Produced in CHO cells; also called muCRIg-Fc; MuCRIg Fc; not shown: hinge, CH2 and CH3 domains of murine IgG1
